Assay results: IntAct's records for PubMed 19955438

B1: 1-phosphatidylinositol 4,5-bisphosphate phosphodiesterase gamma-1 (Bos taurus (Bovine)), P08487 (parent)
chain: MAGAASPCANGCGPSAPSDAEVVHLCRSLEVGTVMTLFYSKKSQRPERKTFQVKLETRQITWSRGADKIEGAIDIREIKEIRPGKTSRDFDRYQEDPAFRPDQSHCFVILYGMEFRLKTLSLQATSEDEVNMWIRGLTWLMEDTLQAATPLQIERWLRKQFYSVDRNREDRISAKDLKNMLSQVNYRVPNMRFLRERLTDLEQRTSDITYGQFAQLYRSLMYSAQKTMDLPFLEASALRAGERPELCRVSLPEFQQFLLEYQGELWAVDRLQVQEFMLSFLRDPLREIEEPYFFLDEFVTFLFSKENSIWNSQLDEVCPDTMNNPLSHYWISSSHNTYLTGDQFSSESSLEAYARCLRMGCRCIELDCWDGPDGMPVIYHGHTLTTKIKFSDVLHTIKEHAFVASEYPVILSIEDHCSIAQQRNMAQYFKKVLGDTLLTKPVDIAADGLPSPNQLKRKILIKHKKLAEGSAYEEVPTSVMYSENDISNSIKNGILYLEDPVNHEWYPHYFVLTSSKIYYSEETSSDQGNEDEEEPKEASGSTELHSNEKWFHGKLGAGRDGRHIAERLLTEYCIETGAPDGSFLVRESETFVGDYTLSFWRNGKVQHCRIHSRQDAGTPKFFLTDNLVFDSLYDLITHYQQVPLRCNEFEMRLSEPVPQTNAHESKEWYHASLTRAQAEHMLMRVPRDGAFLVRKRNEPNSYAISFRAEGKIKHCRVQQEGQTVMLGNSEFDSLVDLISYYEKHPLYRKMKLRYPINEEALEKIGTAEPDYGALYEGRNPGFYVEANPMPTFKCAVKALFDYKAQREDELTFTKSAIIQNVEKQEGGWWRGDYGGKKQLWFPSNYVEEMVSPAALEPEREHLDENSPLGDLLRGVLDVPACQIAVRPEGKNNRLFVFSISMASVAHWSLDVAADSQEELQDWVKKIREVAQTADARLTEGKMMERRKKIALELSELVVYCRPVPFDEEKIGTERACYRDMSSFPETKAEKYVNKAKGKKFLQYNRLQLSRIYPKGQRLDSSNYDPLPMWICGSQLVALNFQTPDKPMQMNQALFLAGGHCGYVLQPSVMRDEAFDPFDKSSLRGLEPCAICIEVLGARHLPKNGRGIVCPFVEIEVAGAEYDSIKQKTEFVVDNGLNPVWPAKPFHFQISNPEFAFLRFVVYEEDMFSDQNFLAQATFPVKGLKTGYRAVPLKNNYSEGLELASLLVKIDVFPAKQENGDLSPFGGASLRERSCDASGPLFHGRAREGSFEARYQQPFEDFRISQEHLADHFDGRDRRTPRRTRVNGDNRL

Variants of: B1
Conditions: with itk_mouse Itk

effect of a mutation on the interaction | Variant
decreasing interaction | R748A;K751A
disrupting interaction | E709A;K711A
decreasing interaction | K749A;R753A
